Data from publication PMC6448818, “A novel evolutionary conserved mechanism of RNA stability regulates synexpression of primordial germ cell-specific genes prior to the sex-determination stage in medaka”.

Key:
[1] = molecular target: T1, Ol-bsf (Ol-lrpprc, Bicoid Stability Factor) (Oryzias latipes, UniProt H2LIH1 1-1438); assay: EMSA; self-competition 1/1 to 1/4 gave progressive loss of shift; EMSA: 10 mM Tris-HCl pH 7.9, 100 mM KCl, 10% glycerol, 5 mM MgCl2, 1 ug torula rRNA, 0.075% Triton X-100, 1 mM DTT, 1 ug BSA, 0.5 ng probe, 2 or 4 uL IVT mix in 20 uL, on ice 10 min; heparin (1/10 volume of 50 mg/mL) before loading; 5% native gel, 0.5x TBE; conditions: protein: ivt; tags: FLAG; label: 5'-32P when probe
T1 sequence: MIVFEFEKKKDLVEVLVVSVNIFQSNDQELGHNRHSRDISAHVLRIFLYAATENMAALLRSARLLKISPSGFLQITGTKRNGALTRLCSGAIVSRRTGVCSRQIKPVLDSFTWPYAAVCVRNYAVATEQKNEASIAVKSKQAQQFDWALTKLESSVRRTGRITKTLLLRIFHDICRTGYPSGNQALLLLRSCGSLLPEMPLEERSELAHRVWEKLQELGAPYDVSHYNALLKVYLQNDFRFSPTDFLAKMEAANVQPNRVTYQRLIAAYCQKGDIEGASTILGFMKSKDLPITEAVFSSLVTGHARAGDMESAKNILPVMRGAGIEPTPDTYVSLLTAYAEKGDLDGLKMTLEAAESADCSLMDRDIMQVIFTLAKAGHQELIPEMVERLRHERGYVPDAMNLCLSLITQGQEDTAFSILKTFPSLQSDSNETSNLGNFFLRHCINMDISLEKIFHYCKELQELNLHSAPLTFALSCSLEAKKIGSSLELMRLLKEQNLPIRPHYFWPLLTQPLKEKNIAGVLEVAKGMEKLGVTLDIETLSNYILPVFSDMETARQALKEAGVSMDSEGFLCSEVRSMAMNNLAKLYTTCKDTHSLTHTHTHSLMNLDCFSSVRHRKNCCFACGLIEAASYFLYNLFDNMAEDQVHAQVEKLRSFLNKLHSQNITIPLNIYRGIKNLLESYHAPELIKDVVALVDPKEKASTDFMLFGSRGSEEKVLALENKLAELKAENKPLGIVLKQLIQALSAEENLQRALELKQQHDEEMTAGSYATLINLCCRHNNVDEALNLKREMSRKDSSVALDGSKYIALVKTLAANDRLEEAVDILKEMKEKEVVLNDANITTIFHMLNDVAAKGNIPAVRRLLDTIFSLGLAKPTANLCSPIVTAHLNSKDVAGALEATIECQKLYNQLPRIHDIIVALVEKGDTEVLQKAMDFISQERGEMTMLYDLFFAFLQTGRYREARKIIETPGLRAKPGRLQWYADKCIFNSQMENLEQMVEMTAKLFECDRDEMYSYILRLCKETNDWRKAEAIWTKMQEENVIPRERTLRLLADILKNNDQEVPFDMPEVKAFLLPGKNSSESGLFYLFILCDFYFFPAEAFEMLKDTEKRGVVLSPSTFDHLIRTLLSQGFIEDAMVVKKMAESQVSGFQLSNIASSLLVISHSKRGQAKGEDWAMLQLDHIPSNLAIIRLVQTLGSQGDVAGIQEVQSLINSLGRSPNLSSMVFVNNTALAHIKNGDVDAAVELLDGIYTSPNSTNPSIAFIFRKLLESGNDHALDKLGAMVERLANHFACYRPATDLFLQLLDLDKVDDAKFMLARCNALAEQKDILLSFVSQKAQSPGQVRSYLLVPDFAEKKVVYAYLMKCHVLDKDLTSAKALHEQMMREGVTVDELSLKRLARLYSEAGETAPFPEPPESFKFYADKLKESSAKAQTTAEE

[2] = molecular target: T1, Ol-bsf (Ol-lrpprc, Bicoid Stability …); assay: competition; vs labelled D3U-box, probe/competitor 1/5; EMSA: 10 mM Tris-HCl pH 7.9, 100 mM KCl, 10% glycerol, 5 mM MgCl2, 1 ug torula rRNA, 0.075% Triton X-100, 1 mM DTT, 1 ug BSA, 0.5 ng probe, 2 or 4 uL IVT mix in 20 uL, on ice 10 min; heparin (1/10 volume of 50 mg/mL) before loading; 5% native gel, 0.5x TBE; conditions: protein: ivt; tags: FLAG

## UGGUUCACGUCUGCUGCAGGUCUCUGACUCU (ssRNA) [native medaka D3U-box]
[1]
  binding result: binds

## UGGUUCACGUUCUUCAAGACGCUCUGACUCU (ssRNA) [D3U-scrambled box (S-D3U-box)]
[2]
  binding result: no binding
